# According to publication PMC7096399, “The Na,K-ATPase acts upstream of phosphoinositide PI(4,5)P2 facilitating unconventional secretion of Fibroblast Growth Factor 2” (Communications Biology, 2020):
# Target: T1, ∆N25-FGF2, non-tagged form of FGF2 lacking 25 residues at the N-terminus (UniProt P09038-2 26-155)
# T1 construct: FGF2, 18 kDa isoform (UniProtKB P09038-2), lacking 25 residues at the N-terminus; Untagged; also called untagged version of FGF2; source: E. coli, purified according to standard procedures
# T1 sequence (P09038 159-288): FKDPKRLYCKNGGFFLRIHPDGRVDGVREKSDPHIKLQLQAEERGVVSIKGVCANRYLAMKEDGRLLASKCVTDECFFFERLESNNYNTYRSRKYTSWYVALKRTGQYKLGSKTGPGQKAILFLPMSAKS
# Test: AlphaScreen or HTRF; competition: His-FGF2-wt (62 nM) and GST-α1 variant (15 nM) with ∆N25-FGF2 competitor from 22.5 µM to 1.4 nM; apparent IC50 taken as the apparent KD
# Settings: both partners purified
binder,measurement,value
"GST-α1-CD1-3, fusion of the three main loops of the cytoplasmic domain of the α1 subunit of the Na,K-ATPase (domain or fragment) not shown",Kd,1.1 µM
